Like-named read-outs stand apart in the source and are kept apart here.
Legend:
Assay in all cases: SEC
[1] = molecular target: T1, bacteriophage P22 coat protein (bacteriophage P22, UniProt P26747 1-430)
[2] = molecular target: T1, bacteriophage P22 coat protein; remark: listed apart in the source
[3] = molecular target: T1, bacteriophage P22 coat protein; remark: listed apart in the source

T1 sequence (P26747 whole entry): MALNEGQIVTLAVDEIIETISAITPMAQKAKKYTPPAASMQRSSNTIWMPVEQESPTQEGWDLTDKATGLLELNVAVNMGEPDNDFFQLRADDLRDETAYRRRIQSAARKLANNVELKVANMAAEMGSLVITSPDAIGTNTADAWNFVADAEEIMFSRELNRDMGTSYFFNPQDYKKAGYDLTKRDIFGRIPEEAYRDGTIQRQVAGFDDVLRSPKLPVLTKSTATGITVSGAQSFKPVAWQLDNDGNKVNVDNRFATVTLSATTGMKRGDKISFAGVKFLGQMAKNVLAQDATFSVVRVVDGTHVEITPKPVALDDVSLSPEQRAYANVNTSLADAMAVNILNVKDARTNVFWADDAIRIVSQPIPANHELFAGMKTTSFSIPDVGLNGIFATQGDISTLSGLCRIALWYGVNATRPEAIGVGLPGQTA

B1: bacteriophage P22 scaffolding protein (natural protein, UniProt P26748 1-303, looked up)
chain: MEPTTEIQATEDLTLSGDHAAASADSLVVDNANDNAGQEEGFEIVLKDDETAPKQDPAKNAEFARRRIERKRQRELEQQMEAVKRGELPESLRVNPDLPPQPDINAYLSEEGLAKYDYDNSRALAAFNAANTEWLMKAQDARSNAVAEQGRKTQEFTQQSAQYVEAARKHYDAAEKLNIPDYQEKEDAFMQLVPPAVGADIMRLFPEKSAALMYHLGANPEKARQLLAMDGQSALIELTRLSERLTLKPRGKQISSAPPADQPITGDVSAANKDAIRKQMDAAASKGDVETYRKLKAKLKGIR
stoichiometry N [1]: ~360 scaffolding protein sites per PC | midpoint of the binding fit (K's, input S/C ratio) [2]: 0.88 input S/C molar ratio | stoichiometry N [2]: 294 ± 33 scaffolding proteins per PC | 1/KS (dissociation constant of scaffolding protein for PC), Snum 300 [3]: 0.77 ± 0.7 µM | 1/KS (dissociation constant of scaffolding protein for PC), Snum 360 [3]: 1.29 ± 0.95 µM | 1/KS (dissociation constant of scaffolding protein for PC), Snum 420 [3]: 1.88 ± 1.25 µM

From publication PMC3351694 (Virology, 2012)
